According to patent publication US20200123264A1 (Regeneron, published 2020):

T1: recombinant human LEPR extracellular domain expressed with a C-terminal mouse IgG2a Fc tag (human)
T1 construct: Dimeric construct; also called hLEPR.mFc; hLEPR-mFc
T1 chain: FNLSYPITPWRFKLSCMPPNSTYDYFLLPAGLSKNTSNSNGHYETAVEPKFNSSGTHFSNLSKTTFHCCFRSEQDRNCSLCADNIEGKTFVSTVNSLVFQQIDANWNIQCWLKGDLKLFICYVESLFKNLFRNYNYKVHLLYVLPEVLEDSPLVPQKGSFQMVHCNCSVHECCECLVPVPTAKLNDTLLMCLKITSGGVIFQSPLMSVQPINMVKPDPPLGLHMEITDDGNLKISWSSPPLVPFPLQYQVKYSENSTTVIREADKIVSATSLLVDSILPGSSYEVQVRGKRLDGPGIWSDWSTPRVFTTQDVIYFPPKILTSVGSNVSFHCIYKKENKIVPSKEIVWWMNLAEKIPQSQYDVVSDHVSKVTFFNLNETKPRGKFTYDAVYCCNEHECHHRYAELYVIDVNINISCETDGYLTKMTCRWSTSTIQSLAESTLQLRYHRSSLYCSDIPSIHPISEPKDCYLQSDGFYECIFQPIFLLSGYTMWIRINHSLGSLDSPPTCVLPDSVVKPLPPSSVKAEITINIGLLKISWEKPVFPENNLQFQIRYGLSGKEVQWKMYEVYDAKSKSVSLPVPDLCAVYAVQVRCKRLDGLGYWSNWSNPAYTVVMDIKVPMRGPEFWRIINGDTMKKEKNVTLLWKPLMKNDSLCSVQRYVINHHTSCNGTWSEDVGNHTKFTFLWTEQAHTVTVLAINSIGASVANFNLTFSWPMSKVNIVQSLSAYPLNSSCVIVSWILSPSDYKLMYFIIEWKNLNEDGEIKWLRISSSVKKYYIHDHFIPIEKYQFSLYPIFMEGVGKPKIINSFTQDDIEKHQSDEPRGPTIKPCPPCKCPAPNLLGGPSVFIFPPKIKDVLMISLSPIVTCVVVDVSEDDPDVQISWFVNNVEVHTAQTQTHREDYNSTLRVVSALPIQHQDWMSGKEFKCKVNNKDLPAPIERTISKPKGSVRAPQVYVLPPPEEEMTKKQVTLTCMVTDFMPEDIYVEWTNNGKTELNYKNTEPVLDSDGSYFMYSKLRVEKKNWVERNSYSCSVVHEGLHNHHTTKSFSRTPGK


Tests used:
Test in all cases: SPR, mAb captured, 25 C
[1] = target: T2, recombinant human LEPR extracellular domain expressed with a C-terminal myc-myc-hexahistidine tag (human, UniProt P48357 22-839)
T2 construct: Monomeric construct; also called hLEPR.MMH; hLEPR-MMH
Method: (§1) Equilibrium dissociation constants (KD values) for antigen binding to purified anti-LEPR monoclonal antibodies of the invention were determined using a real-time surface plasmon resonance biosensor using a Biacore 4000 instrument. All binding studies were performed in running buffer containing 10 mM HEPES, 150 mM NaCl, 3 mM EDTA, and 0.05% v/v Surfactant Tween-20, pH 7.4 (HBS-ET running buffer) at 25° C. and 37° C. The Biacore sensor surface was first derivatized by amine coupling with a monoclonal mouse anti-human Fc antibody (GE, # BR-1008-39) to the capture anti-LEPR monoclonal antibodies. The LEPR reagents tested for binding to the anti-LEPR monoclonal antibodies included recombinant human LEPR extracellular domain expressed with a C-terminal myc-myc-hexahistidine tag (hLEPR.MMH; SEQ ID NO:90), recombinant cynomolgus monkey LEPR extracellular domain expressed with a C-terminal myc-myc-hexahistidine tag (mfLEPR.MMH; SEQ ID NO:93), recombinant mouse LEPR extracellular domain expressed with a C-terminal myc-myc-hexahistidine tag (mLEPR.MMH; SEQ ID NO:94), recombinant rat LEPR extracellular domain expressed with a C-terminal myc-myc-hexahistidine tag (rLEPR.MMH; SEQ ID NO:95), and recombinant human LEPR extracellular domain expressed with a C-terminal mouse IgG2a Fc tag (hLEPR.mFc; SEQ ID NO:91). LEPR constructs that include MMH tags are monomeric LEPR constructs, and LEPR constructs including an mFc tag are dimeric LEPR constructs. […] The dissociation of monoclonal antibody bound LEPR reagent was monitored for 10 minutes in HBS-ET running buffer. Kinetic association (10 and dissociation (10 rate constants were determined by fitting the real-time binding sensorgrams to a 1:1 binding model with mass transport limitation using Scrubber 2.0c curve-fitting software. Binding dissociation equilibrium constants (KD) and dissociative half-lives (t½) were calculated from the kinetic rate constants as: […]

[2] = target: T1, recombinant human LEPR extracellular …
Method: as §1

[3] = target: T3, recombinant cynomolgus monkey LEPR extracellular domain expressed with a C-terminal myc-myc-hexahistidine tag (cynomolgus monkey, UniProt Q9MYL0 22-837 (rhesus entry))
T3 construct: Monomeric construct; also called mfLEPR.MMH; mfLEPR-MMH
Method: as §1

[4] = target: T4, recombinant mouse LEPR extracellular domain expressed with a C-terminal myc-myc-hexahistidine tag (mouse, UniProt P48356 22-839)
T4 construct: Monomeric construct; also called mLEPR.MMH; mLEPR-MMH
Method: as §1

[5] = target: T5, recombinant rat LEPR extracellular domain expressed with a C-terminal myc-myc-hexahistidine tag (rat, UniProt Q62959 22-839)
T5 construct: Monomeric construct; also called rLEPR.MMH; rLEPR-MMH
Method: as §1

T4 sequence (P48356 other isoform, or with tags, fused parts or gaps): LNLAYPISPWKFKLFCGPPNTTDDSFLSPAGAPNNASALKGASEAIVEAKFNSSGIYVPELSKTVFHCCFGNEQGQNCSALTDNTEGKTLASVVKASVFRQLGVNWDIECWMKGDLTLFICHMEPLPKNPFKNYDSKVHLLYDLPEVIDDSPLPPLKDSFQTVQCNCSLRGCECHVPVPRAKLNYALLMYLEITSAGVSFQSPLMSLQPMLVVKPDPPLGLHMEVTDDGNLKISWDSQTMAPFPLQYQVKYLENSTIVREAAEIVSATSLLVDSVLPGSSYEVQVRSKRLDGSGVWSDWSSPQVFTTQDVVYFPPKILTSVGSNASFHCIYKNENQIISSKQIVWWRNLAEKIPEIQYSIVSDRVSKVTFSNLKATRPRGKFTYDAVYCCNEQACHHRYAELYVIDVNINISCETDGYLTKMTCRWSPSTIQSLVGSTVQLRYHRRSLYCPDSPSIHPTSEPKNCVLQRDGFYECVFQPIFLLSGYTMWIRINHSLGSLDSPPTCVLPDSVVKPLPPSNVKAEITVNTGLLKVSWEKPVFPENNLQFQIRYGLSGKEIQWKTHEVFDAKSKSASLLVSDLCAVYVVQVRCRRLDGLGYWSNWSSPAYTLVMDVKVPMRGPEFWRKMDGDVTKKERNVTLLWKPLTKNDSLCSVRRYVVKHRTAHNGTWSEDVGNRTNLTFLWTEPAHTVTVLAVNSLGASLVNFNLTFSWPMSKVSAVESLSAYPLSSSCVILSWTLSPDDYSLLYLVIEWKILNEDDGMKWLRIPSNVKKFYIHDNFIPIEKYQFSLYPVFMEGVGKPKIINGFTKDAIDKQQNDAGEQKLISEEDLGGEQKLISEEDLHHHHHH
T5 sequence (Q62959 other isoform, or with tags, fused parts or gaps): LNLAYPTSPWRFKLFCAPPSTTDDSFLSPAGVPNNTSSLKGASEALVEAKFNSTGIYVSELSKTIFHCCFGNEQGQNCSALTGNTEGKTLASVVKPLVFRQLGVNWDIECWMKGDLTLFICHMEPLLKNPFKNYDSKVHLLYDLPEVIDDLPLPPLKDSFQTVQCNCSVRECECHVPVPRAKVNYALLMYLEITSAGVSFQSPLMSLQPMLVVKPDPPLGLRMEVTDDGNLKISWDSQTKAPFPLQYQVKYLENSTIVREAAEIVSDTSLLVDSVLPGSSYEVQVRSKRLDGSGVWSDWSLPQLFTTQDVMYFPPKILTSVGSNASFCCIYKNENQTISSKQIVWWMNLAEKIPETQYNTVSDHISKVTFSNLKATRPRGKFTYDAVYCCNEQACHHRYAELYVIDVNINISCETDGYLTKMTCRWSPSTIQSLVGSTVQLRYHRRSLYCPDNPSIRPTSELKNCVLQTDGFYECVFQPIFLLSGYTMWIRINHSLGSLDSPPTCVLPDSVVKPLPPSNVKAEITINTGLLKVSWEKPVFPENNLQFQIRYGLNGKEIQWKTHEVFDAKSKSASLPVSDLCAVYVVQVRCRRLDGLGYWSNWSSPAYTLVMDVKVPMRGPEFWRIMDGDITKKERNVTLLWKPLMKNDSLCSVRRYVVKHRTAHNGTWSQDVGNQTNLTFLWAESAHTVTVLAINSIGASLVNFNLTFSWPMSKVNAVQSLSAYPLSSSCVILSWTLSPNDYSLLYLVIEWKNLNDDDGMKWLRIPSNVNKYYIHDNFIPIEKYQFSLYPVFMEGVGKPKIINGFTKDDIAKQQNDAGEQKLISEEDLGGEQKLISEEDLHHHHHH

| 100 nM hLEPR-MMH Bound (RU) [1] | Kd [1] | koff [1] | kon [1] | t½ [1] | 100 nM hLEPR-mFc Bound (RU) [2] | Kd [2] | koff [2] | kon [2] | t½ [2] | 100 nM mfLEPR-MMH Bound (RU) [3] | Kd [3] | koff [3] | kon [3] | t½ [3] | 100 nM mLEPR-MMH Bound (RU) [4] | 100 nM rLEPR-MMH Bound (RU) [5] | Kd [5] | koff [5] | kon [5] | Binder | also measured |
| --- | --- | --- | --- | --- | --- | --- | --- | --- | --- | --- | --- | --- | --- | --- | --- | --- | --- | --- | --- | --- | --- |
| 66 RU | 5.11 nM | 0.000224 s⁻¹ | 43800 M⁻¹ s⁻¹ | 52 min | 74 RU | 1.77 nM | 0.000114 s⁻¹ | 64500 M⁻¹ s⁻¹ | 102 min | 102 RU | 4.16 nM | 0.000292 s⁻¹ | 70200 M⁻¹ s⁻¹ | 40 min | 0 RU | – | – | – | – | H4H17322P2 (antibody, human IgG4, V domains shown, H4H prefix: human IgG4 Fc) VH: QLQLQESGPGLVKPSETLSLTCTVSGASISSSRFYGGWIRQPPGKGLEWIGDIYYSGNTYYNPSLQSRVTISVDTSKNQFSLKLSSVTAADTAVYYCARHLMITFGGLIVEGFDIWGQGTMVTVSS VL: not shown | – |
| 71 RU | 11.8 nM | 0.000497 s⁻¹ | 42300 M⁻¹ s⁻¹ | 23 min | 140 RU | 0.443 nM | 6.82e-05 s⁻¹ | 154000 M⁻¹ s⁻¹ | 169 min | 67 RU | 54.1 nM | 0.00268 s⁻¹ | 49500 M⁻¹ s⁻¹ | 4.3 min | -3 RU | -2 RU | – | – | – | H4H18440P2 (antibody, human IgG4, V domains shown, H4H prefix: human IgG4 Fc) VH: QVQLVESGGGMVKPGGSLRLSCAASGFTFSDYYMSWIRQAPGKGLEWISHISITGSTIYYADSVKGRFTISRDNAKNSLYLEMNRLRDEDTAVYYCTRDEPDIVLVRYGMDVWGQGTTVTVSS VL: not shown | – |
| 119 RU | 9.89 nM | 0.00252 s⁻¹ | 255000 M⁻¹ s⁻¹ | 5 min | 149 RU | 0.863 nM | 0.000423 s⁻¹ | 491000 M⁻¹ s⁻¹ | 27 min | 133 RU | 12.2 nM | 0.00331 s⁻¹ | 273000 M⁻¹ s⁻¹ | 3.5 min | 1 RU | 18 RU | 730 nM | 0.0206 s⁻¹ | 28300 M⁻¹ s⁻¹ | H4H18457P2 (antibody, human IgG4, V domains shown, H4H prefix: human IgG4 Fc) VH: EVQLVESGGSVVRPGESLRLSCAASGFTFDDYGMSWVRQAPGKGLEWVSGISWNGGITVYADSVKGRFTVSRDNAKNSLYLQMNSLRAEDTALYHCARARYGGADYWGQGTLVTVSS VL: not shown | t½ [5]: 0.6 min |
| 21 RU | 106 nM | 0.00113 s⁻¹ | 10700 M⁻¹ s⁻¹ | 10 min | 53 RU | 3.69 nM | 0.00018 s⁻¹ | 48700 M⁻¹ s⁻¹ | 64 min | 22 RU | 96.3 nM | 0.00152 s⁻¹ | 15700 M⁻¹ s⁻¹ | 8 min | -2 RU | -1 RU | – | – | – | H4H18439P2 (antibody, human IgG4, V domains shown, H4H prefix: human IgG4 Fc) VH: QLQLQESGPGLVKPSETLSLTCIVSGGDITSSSYYWNWIRQPPGKGLEWIGNIYYSGSTNYNPSLKSRVTISIDTSKSQFSLKLRSVTAADTAVYYCARLLRYFDWSKGYLDYWGQGTLVTVSS VL: not shown | – |
| 34 RU | 113 nM | 0.00765 s⁻¹ | 67900 M⁻¹ s⁻¹ | 1.5 min | 68 RU | 3.26 nM | 0.000296 s⁻¹ | 90800 M⁻¹ s⁻¹ | 39 min | 42 RU | 179 nM | 0.0133 s⁻¹ | 74200 M⁻¹ s⁻¹ | 0.9 min | 2 RU | 5 RU | 336 nM | 0.0108 s⁻¹ | 32100 M⁻¹ s⁻¹ | H4H18462P2 (antibody, human IgG4, V domains shown, H4H prefix: human IgG4 Fc) VH: EVQLVESGGDLVQPGRSLRLSCAASGFTFSSFAMSWVRQAPGRGLEWVSSLSDSGDNTYYADSVKGRFTISRDNSKNTLYLQMNNLRAEDTAVYYCAKDLFSGWLFHGFDVWGQGTMVTVSS VL: not shown | t½ [5]: 1.1 min; binding result [4]: no binding (tested: 100 nM) |
| 24 RU | 194 nM | 0.00511 s⁻¹ | 26400 M⁻¹ s⁻¹ | 2.3 min | 37 RU | 11.9 nM | 0.000472 s⁻¹ | 39700 M⁻¹ s⁻¹ | 24 min | 30 RU | 148 nM | 0.00669 s⁻¹ | 45000 M⁻¹ s⁻¹ | 1.7 min | 1 RU | 5 RU | 943 nM | 0.0198 s⁻¹ | 21000 M⁻¹ s⁻¹ | H4H18466P2 (antibody, human IgG4, V domains shown, H4H prefix: human IgG4 Fc) VH: EVQLVESGGGLVQPGGSLRLSCTASGFTFSSYGLHWVRQAPGKGLEYVSSINHNGGSKYYADSVKGRFTISRDNSKNTLFLQMGSLKTEDMAVYYCARDLFLEWLFHGFDIWGQGTMVTVSS VL: not shown | t½ [5]: 0.6 min; binding result [4]: no binding (tested: 100 nM) |
| 56 RU | 65.3 nM | 0.00375 s⁻¹ | 57400 M⁻¹ s⁻¹ | 3.1 min | 70 RU | 5.27 nM | 0.000536 s⁻¹ | 102000 M⁻¹ s⁻¹ | 22 min | 70 RU | 58.9 nM | 0.00405 s⁻¹ | 68700 M⁻¹ s⁻¹ | 2.9 min | 6 RU | 13 RU | 328 nM | 0.0138 s⁻¹ | 42100 M⁻¹ s⁻¹ | H4H18437P2 (antibody, human IgG4, V domains shown, H4H prefix: human IgG4 Fc) VH: QVQLVESGGGVVQPGRSLRLSCAASGFTFSSYGIHWVRQAPGKGLEWVAVISYDGNNKYYADSVKGRFTISRDNSKNTLYLQMNSLRAEDTAVYYCAKDLFLEWLFHGMGVWGQGTTVTVSS VL: not shown | t½ [5]: 0.8 min; Kd [4]: 264 nM; koff [4]: 0.00418 s⁻¹; kon [4]: 15800 M⁻¹ s⁻¹; t½ [4]: 2.8 min |
| 60 RU | 9.09 nM | 0.00113 s⁻¹ | 124000 M⁻¹ s⁻¹ | 10 min | 84 RU | 0.891 nM | 0.000188 s⁻¹ | 211000 M⁻¹ s⁻¹ | 61 min | 15 RU | 60.4 nM | 0.00231 s⁻¹ | 38200 M⁻¹ s⁻¹ | 5 min | -1 RU | -1 RU | – | – | – | H4H18464P2 (antibody, human IgG4, V domains shown, H4H prefix: human IgG4 Fc) VH: QVQLVQSGPEVKKPGASVKVSCKGSGYTFSWYGISWIRQAPGHGLEWMGWISASSGNTRFAQKVQGRLTMTTDTSTSTAYMELRSLRSDDTAVYYCARTGTRPFDYWGQGTLVTVSS VL: not shown | – |
